Results as given in IntAct's records for PubMed 18570893.

Target: call3_human CALML3 (UniProt P27482)
Sequence (P27482 whole entry): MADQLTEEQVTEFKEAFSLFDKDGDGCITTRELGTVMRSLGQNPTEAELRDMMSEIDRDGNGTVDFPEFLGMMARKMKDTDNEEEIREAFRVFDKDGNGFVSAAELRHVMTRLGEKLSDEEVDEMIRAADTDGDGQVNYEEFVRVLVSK

effect of a mutation on the interaction: disrupting interaction
Substance: Unconventional myosin-X (Homo sapiens), Q9HD67 F795A
